Measurements from patent US20160039934A1 (AFFIRMED, published 2016).

Assays:
[1] = biological target: EGFRvIII (UniProt P00533 25-1210); experiment: cell-based or functional assay
[2] = biological target: T1, cynomolgus CD3 (cynomolgus, UniProt Q95LI5 22-198); experiment: flow cytometry on cynomolgus CD3+ HSC-F cells, anti-His mAb and FITC goat anti-mouse IgG, non-linear regression of MFI
T1 construct: whole, on cells; CD3 is a multi-chain complex; also called CD3 on cynomolgus CD3+ HSC-F cells; cynomolgus CD3-expressing cell line (HSC-F)
From the text: (§1) Cell-surface bound tandem diabody was detected by anti-His mAb followed by FITC-conjugated goat anti-mouse IgG. To calculate KD, mean fluorescence intensities determined by flow cytometry were modeled as sigmoidal dose-response by non-linear regression.
(§2) FIGS. 3A and 3B present binding of titrated tandem diabodies TandAb D, containing var_y, and TandAb E (SEQ ID NO:12), containing var_z, to a CD3⁺ human T cell line (Jurkat) and a CD3⁺ cynomolgus cell line (HSC-F), as determined by flow cytometric analysis.

[3] = biological target: T2, human CD3 (human, UniProt P07766 23-207); experiment: flow cytometry on Jurkat cells, non-linear regression (rounded restatement of the FIG. 3 value)
T2 construct: whole, on cells; CD3 is a multi-chain complex; also called CD3 on human CD3+ Jurkat cells; CD3+ human T cell line (Jurkat)
From the text: as §1, §2

[4] = biological target: T2, human CD3; experiment: flow cytometry on Jurkat cells; reference TandAb E
From the text: as §1, §2

[5] = biological target: T2, human CD3; experiment: flow cytometry on human CD3+ Jurkat cells, anti-His mAb and FITC goat anti-mouse IgG, non-linear regression of MFI
From the text: as §1, §2

T2 sequence (P07766 23-207): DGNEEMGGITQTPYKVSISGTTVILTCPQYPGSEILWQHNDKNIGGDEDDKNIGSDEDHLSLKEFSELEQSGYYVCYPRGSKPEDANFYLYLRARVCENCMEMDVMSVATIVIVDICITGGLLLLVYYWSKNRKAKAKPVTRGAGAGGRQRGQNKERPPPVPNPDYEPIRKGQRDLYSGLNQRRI
T1 sequence (Q95LI5 22-198): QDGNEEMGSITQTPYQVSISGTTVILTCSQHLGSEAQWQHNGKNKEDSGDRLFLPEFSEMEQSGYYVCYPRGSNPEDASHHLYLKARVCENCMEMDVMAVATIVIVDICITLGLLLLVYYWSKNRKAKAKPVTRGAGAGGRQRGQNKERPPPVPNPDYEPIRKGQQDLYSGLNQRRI

Kd [2] [nM] | Kd [3] [nM] | fold higher affinity than TandAb E [4] [fold] | Kd [5] [nM] | Binder | EC50, 4 h calcein release cytotoxicity assay [1] [pM]
– | – | – | – | TandAb G (SEQ ID NO:14) (bispecific antibody) DIQMTQSPSSLSASVGDRVTITCRSSTGAVTTSNYANWVQQKPGKAPKGLIGGTNKRAPGVPSRFSGSLIGDKATLTISSLQPEDFATYYCALWYSNLWVFGQGTKVEIKGGSGGSEVQLVQSGAEVKKPGESLKISCKGSGYSFTSYWIGWVRQMPGKGLEWMGIIYPGDSDTRYSPSFQGQVTISADKSISTAYLQWSSLKASDTAMYYCARLGSSWTNDAFDIWGQGTMVTVSSGGSGGSSYELTQPPSVSVSPGQTARITCSGDALPKQYAYWYQQKPGQAPVLVIYKDSERPSGIPERFSGSSSGTTVTLTISGVQAEDEADYYCQSADSSGTPLIVFGTGTKLTVLGGSGGSEVQLVESGGGLVQPGGSLRLSCAASGFTFSTYAMNWVRQAPGKGLEWVGRIRSKYNNYATYYADSVKDRFTISRDDSKNSLYLQMNSLKTEDTAVYYCARHGNFGNSYVSWFAYWGQGTLVTVSSAAAGSHHHHHH | 129
3.4 | 1.8 | > 10 | 1.82 | TandAb D (var_y) (SEQ ID NO:11) (bispecific antibody, Homodimeric tandem diabody; Detected by anti-His mAb) DIQMTQSPSSLSASVGDRVTITCRSSTGAVTTSNYANWVQQKPGKAPKALIGGTNKRAPGVPSRFSGSLIGDKATLTISSLQPEDFATYYCALWYSNLWVFGQGTKVEIKGGSGGSEVQLVQSGAEVKKPGESLKISCKGSGYSFTSYWIGWVRQMPGKGLEWMGIIYPGDSDTRYSPSFQGQVTISADKSISTAYLQWSSLKASDTAMYYCARLGSSWTNDAFDIWGQGTMVTVSSGGSGGSSYELTQPPSVSVSPGQTARITCSGDALPKQYAYWYQQKPGQAPVLVIYKDSERPSGIPERFSGSSSGTTVTLTISGVQAEDEADYYCQSADSSGTPLIVFGTGTKLTVLGGSGGSEVQLVESGGGLVQPGGSLRLSCAASGFTFSTYAMNWVRQAPGKGLEWVGRIRSKYNNYATYYADSVKDRFTISRDDSKNSLYLQMNSLKTEDTAVYYCARHGNFGNSYVSYFAYWGQGTLVTVSSAAAGSHHHHHH | 122
24.3 | 27.7 | – | 27.7 | TandAb E (var_z) (SEQ ID NO:12) (bispecific antibody, Homodimeric tandem diabody; Detected by anti-His mAb) DIQMTQSPSSLSASVGDRVTITCRSSTGAVTTSNYANWVQQKPGKAPKGLIGGTNKRAPGVPSRFSGSLIGDKATLTISSLQPEDFATYYCALWYSNLWVFGQGTKVEIKGGSGGSEVQLVQSGAEVKKPGESLKISCKGSGYSFTSYWIGWVRQMPGKGLEWMGIIYPGDSDTRYSPSFQGQVTISADKSISTAYLQWSSLKASDTAMYYCARLGSSWTNDAFDIWGQGTMVTVSSGGSGGSSYELTQPPSVSVSPGQTARITCSGDALPKQYAYWYQQKPGQAPVLVIYKDSERPSGIPERFSGSSSGTTVTLTISGVQAEDEADYYCQSADSSGTPLIVFGTGTKLTVLGGSGGSEVQLVESGGGLVQPGGSLRLSCAASGFTFSTYAMNWVRQAPGKGLEWVGRIRSKYNNYATYYADSVKDRFTISRDDSKNSLYLQMNSLKTEDTAVYYCARHGNFGNSYVSHFAYWGQGTLVTVSSAAAGSHHHHHH | –
